Test results published in patent US11219221B2 (FarmHannong Co., Ltd., priority 2017, dated 2022).

How the values were obtained:
CyPPO16 [1] = test: Herbicide tolerance test of CyPPO16 wild type and variants in PPO-deficient E. coli BT3(ΔPPO); format: cell-based, Spirulina subsalsa; conditions: BT3(ΔPPO) transformants, two or more amino acid mutations, dark; for Herbicide tolerance, tiafenacil: 37° C., 16 to 20 hours, relative to wild type at highest concentration (50, 200 μM); for Herbicide tolerance, flumioxazin: relative to wild type at highest concentration (25, 50 μM); for Herbicide tolerance, sulfentrazone: relative to wild type at highest concentration (2000, 4000 μM)
Procedure: The mutated CyPPO gene obtained from the Example 2 was transformed to BT3 (ΔPPO) strain which is deficient of PPO activity and cultured in LB media with PPO-inhibiting herbicide, thereby examining whether growth of transformed BT3 was not inhibited.
BT3 competent cells were transformed with the pET303-CyPPO16 and pET303-CyPPO17 plasmids and those with a mutation(s) constructed in Example 2 respectively, and were cultured in LB agar media containing carbenicillin (Gold Biotechnology, Co., Ltd.).
Single colony of E. coli transformed with each CyPPO gene was cultured in 3 ml of LB broth containing carbenicillin overnight, and then was subcultured until absorbance (0D600) reached 0.5 to 1. Then, it was diluted with LB broth to OD600=0.5. Again, the diluted solution was serially diluted 4 times by a factor of one tenth.
The LB agar media (LB 25 g/l, Bacto agar 15 g/l) containing carbenicillin (100 μg/ml) and 0 to 4,000 μM of various herbicides dissolved in DMSO was prepared. Next, 10 μl of each diluted solution was dropped on the plate and cultured at 37° C. under light (Tables 7 and 9, FIGS. 2 to 6, and 18 to 22) or dark (Tables 8 and 10, FIGS. 7 to 17, and 23 to 33) for 16 to 20 hours. Then, extent of tolerance was evaluated.
The extent of herbicide tolerance of the mutated genes was evaluated by comparing that of mutated genes with that of wild type. The relative tolerance was represented with “+” as a factor of 10 times. Evaluation result was listed in Tables 7 to10 and FIGS. 2 to 33:
In Tables 7 to 10, tolerance level was presented as of tolerance of wild type and of variants equivalent to that of wild type, and was done as ‘+’ per each 10 fold resistance until ‘+++++’ as maximal resistance. (Tolerance level was evaluated by relative growth level of variants to that of wild type in the media containing highest concentration of herbicide; ‘+’=1-9 fold higher tolerance, ‘++’=10-99 fold higher tolerance, ‘+++’=100-999 fold higher tolerance, ‘++++’=1,000-9,999 fold higher tolerance, ‘+++++’=more than 10,000 fold higher tolerance)
The concentrations of herbicides were written above the photographs of tolerance test. A dilution series (0D600=0.5, 0.05, 0.005, 0.0005, 0.00005) was made and spotted on LB agar plates supplemented with herbicides.

CyPPO16 [2] = test: PPO enzyme activity of MBP-fused CyPPO16 wild type and variants; format: biochemical, Spirulina subsalsa; conditions: PPO enzyme activity relative to wild type; MBP-fused protein, 50 μM protoporphyrinogen IX, room temperature, 30 min
Procedure: Thus, PPO proteins of wild type and variants were expressed as fused to MBP and were used for experiments.
The following process for purification of PPO protein was performed in a 4° C. cold room. Amylose resin (NEB) was packed to 1.5×15 cm column (Bio-Rad, Econo Columns 1.5×15 cm, glass chromatography column, max. vol), and the obtained protein extracts were loaded to the column at a flow rate of 0.2 ml/min. The column was washed with 3 column volumes of buffer and the presence of protein in the washing solution was examined. When the protein was no longer detected, the washing procedure was terminated. Then, the MBP-PPO protein was eluted with approximately 2 column volumes of buffer containing 20 mM maltose. The protein concentration of each eluent was determined and the elution was stopped when the protein was no longer detected. Ten microliter of each fraction was investigated for protein quantification and SDS-PAGE analysis. The highly pure fractions of PPO protein variants were used for the enzyme assay.
Since protoporphyrinogen IX, a substrate of PPO protein, was not commercially available, it was chemically synthesized in the laboratory. Overall process was performed in dark under nitrogen stream. […] of protoporphyrin IX was dissolved in 20 ml of 20% (v/v) EtOH, and stirred under dark condition for 30 minutes. The obtained protoporphyrin IX solution was put into a 15 ml screw tube in an amount of 800 μl, and flushed with nitrogen gas for 5 minutes. To this, 1.5 g of sodium amalgam was added and vigorously shaken for 2 minutes. The lid was opened to exhaust hydrogen gas in the tube. Thereafter, the lid was closed and incubated for 3 minutes. The protoporphyrinogen IX solution was filtered using syringe and cellulose membrane filter. […] To determine the enzyme activity of PPO protein, a reaction mixture was prepared with the following composition (based on 10 ml): 50 mM Tris-Cl (pH 8.0); 50 mM NaCl; 0.04% (v/v) Tween 20; 40 mM glucose (0.072 g); 5 units glucose oxidase (16.6 mg); and 10 units catalase (1 μl).
Hundred and eighty microliters of a reaction mixture containing the purified PPO protein were placed in 96 well plates and 20 μl of […] were added. […] The reaction proceeded at room temperature for 30 min and the fluorescence of protoporphyrin IX was measured using Microplate reader (Sense, Hidex) (excitation: 405 nm; emission: 633 nm). […] To this, 2.7 N HCl was added, and the absorbance at 408 nm was measured. A standard curve was generated using standard protoporphyrin IX, and PPO activity was measured by calibration of protoporphyrin IX using the standard curve of protoporphyrin IX.
Activities of variants were presented relatively compared to that of wild type.

| Molecule | Herbicide tolerance, tiafenacil (CyPPO16 [1]) | Herbicide tolerance, flumioxazin (CyPPO16 [1]) | Herbicide tolerance, sulfentrazone (CyPPO16 [1]) | Activity (%) (CyPPO16 [2]) |
| --- | --- | --- | --- | --- |
| V305M + F360M: CyPPO16 variant (protein, Synthetic (Protoporphyrinogen IX oxidase (CyPPO16) of Spirulina subsalsa), CyPPO16 variant) MLDSLIVGAGISGLSAAHTLQKQQTQFLVTESQGRVGGNITTNRQGDYLWEEGPNSFAPTEDLLRLAVEVGLKEDLVFADRRLPRFVYWNQQLHPVPMSPPAALKTQLLSEAGKWRAALGALGFVGGLVGREEETVRQFFTRHLGTEVTERLVAPFVSGVYAGDVDQLSAQAAFRRVFEFAQLGGGLAAGGILARRQAPPKAPPDPSLPETKTGQLGSFREGLEMLPRAIASQLGDRLKLQWRLTHLEITPQQTYLAHFNTPDGPQQIATRTLILTTPAPITADLLKPLTPALHGVLKEIYYPPMACVVLAYPRAASARPLEGFGHLIPRNQGIRTLGTIWSSCLFPGRTPEGEHLLTNMIGGATDPGIAQLDPEEIAQAVHQDLCKILIRPEFTPKILAVRLWKQAIPQYTLGHLQRLATLEQELSKFPGLHILANYTDGVALGDCVKRGVAVAQKIRSRE | +++ (‘+++’=100-999 fold higher tolerance) | ++++ (‘++++’=1,000-9,999 fold higher tolerance) | + (‘+’=1-9 fold higher tolerance) | 35% |
| L327T + F360M: CyPPO16 variant (protein, Synthetic (Protoporphyrinogen IX oxidase (CyPPO16) of Spirulina subsalsa), CyPPO16 variant) MLDSLIVGAGISGLSAAHTLQKQQTQFLVTESQGRVGGNITTNRQGDYLWEEGPNSFAPTEDLLRLAVEVGLKEDLVFADRRLPRFVYWNQQLHPVPMSPPAALKTQLLSEAGKWRAALGALGFVGGLVGREEETVRQFFTRHLGTEVTERLVAPFVSGVYAGDVDQLSAQAAFRRVFEFAQLGGGLAAGGILARRQAPPKAPPDPSLPETKTGQLGSFREGLEMLPRAIASQLGDRLKLQWRLTHLEITPQQTYLAHFNTPDGPQQIATRTLILTTPAPITADLLKPLTPALHGVLKEIYYPPVACVVLAYPRAASARPLEGFGHTIPRNQGIRTLGTIWSSCLFPGRTPEGEHLLTNMIGGATDPGIAQLDPEEIAQAVHQDLCKILIRPEFTPKILAVRLWKQAIPQYTLGHLQRLATLEQELSKFPGLHILANYTDGVALGDCVKRGVAVAQKIRSRE | ++++ (‘++++’=1,000-9,999 fold higher tolerance) | ++++ (‘++++’=1,000-9,999 fold higher tolerance) | ++ (‘++’=10-99 fold higher tolerance) | 21% |
| A162C + L327T + F360M: CyPPO16 variant (protein, Synthetic (Protoporphyrinogen IX oxidase (CyPPO16) of Spirulina subsalsa), CyPPO16 variant) MLDSLIVGAGISGLSAAHTLQKQQTQFLVTESQGRVGGNITTNRQGDYLWEEGPNSFAPTEDLLRLAVEVGLKEDLVFADRRLPRFVYWNQQLHPVPMSPPAALKTQLLSEAGKWRAALGALGFVGGLVGREEETVRQFFTRHLGTEVTERLVAPFVSGVYCGDVDQLSAQAAFRRVFEFAQLGGGLAAGGILARRQAPPKAPPDPSLPETKTGQLGSFREGLEMLPRAIASQLGDRLKLQWRLTHLEITPQQTYLAHFNTPDGPQQIATRTLILTTPAPITADLLKPLTPALHGVLKEIYYPPVACVVLAYPRAASARPLEGFGHTIPRNQGIRTLGTIWSSCLFPGRTPEGEHLLTNMIGGATDPGIAQLDPEEIAQAVHQDLCKILIRPEFTPKILAVRLWKQAIPQYTLGHLQRLATLEQELSKFPGLHILANYTDGVALGDCVKRGVAVAQKIRSRE | +++++ (‘+++++’=more than 10,000 fold higher tolerance) | +++++ (‘+++++’=more than 10,000 fold higher tolerance) | ++++ (‘++++’=1,000-9,999 fold higher tolerance) | 17% |
